Measured values reported in the supplement of paper PMC10567573.

B1: SLC19A2 (parent)
chain: IYPVWTYSYLVLLFPVFLATDYLR

Variants of: B1
Assay: protein stability index of a GFP-peptide fusion (GPS, HEK-293T) (PSI 1-6); higher = more stable
Conditions: c terminus: a fixed tail appended
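Also: lentivirally expressed fusions sorted by FACS into six bins by GFP to DsRed ratio, PSI derived from sequencing read proportions per bin multiplied by bin number.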

**Q.** For IYPVWTYSYLVLLFPVFLATDYLW, which protein stability index is on record?
**A.** 3.24

**Q.** For IYPVWTYSYLVLLFPVFLATDYLL, which protein stability index is on record?
**A.** 2.41

**Q.** With IYPVWTYSYLVLLFPVFLATDYLA as the variant, how does the protein stability index read?
**A.** 2.61

**Q.** For IYPVWTYSYLVLLFPVFLATDYLT, which protein stability index is on record?
**A.** 1.69

**Q.** Which protein stability index does the source give for IYPVWTYSYLVLLFPVFLATDYLD here?
**A.** 2.64

**Q.** Which protein stability index does the source give for IYPVWTYSYLVLLFPVFLATDYLQ here?
**A.** 3.46

**Q.** For IYPVWTYSYLVLLFPVFLATDYLI, which protein stability index is on record?
**A.** 3.43

**Q.** With IYPVWTYSYLVLLFPVFLATDYLN as the variant, how does the protein stability index read?
**A.** 4.07

**Q.** Which protein stability index does the source give for IYPVWTYSYLVLLFPVFLATDYLC here?
**A.** 1.84

**Q.** Which protein stability index does the source give for IYPVWTYSYLVLLFPVFLATDYLG here?
**A.** 2.58

**Q.** For IYPVWTYSYLVLLFPVFLATDYLK, which protein stability index is on record?
**A.** 3.31

**Q.** For IYPVWTYSYLVLLFPVFLATDYLP, which protein stability index is on record?
**A.** 1.99

**Q.** With IYPLWTYSYLVLLFPVFLATDYLR as the variant, how does the protein stability index read?
**A.** 3.73

**Q.** With IYPDWTYSYLVLLFPVFLATDYLR as the variant, how does the protein stability index read?
**A.** 2.85

**Q.** For IYPTWTYSYLVLLFPVFLATDYLR, which protein stability index is on record?
**A.** 3.3

**Q.** For IYPMWTYSYLVLLFPVFLATDYLR, which protein stability index is on record?
**A.** 2.76

**Q.** With IYPCWTYSYLVLLFPVFLATDYLR as the variant, how does the protein stability index read?
**A.** 2.33

**Q.** With IYPNWTYSYLVLLFPVFLATDYLR as the variant, how does the protein stability index read?
**A.** 3.44

**Q.** For IYPKWTYSYLVLLFPVFLATDYLR, which protein stability index is on record?
**A.** 2.96

**Q.** For IYPQWTYSYLVLLFPVFLATDYLR, which protein stability index is on record?
**A.** 3.11

**Q.** With IYPGWTYSYLVLLFPVFLATDYLR as the variant, how does the protein stability index read?
**A.** 3.35

**Q.** For IYPSWTYSYLVLLFPVFLATDYLR, which protein stability index is on record?
**A.** 3.21

**Q.** With IYPEWTYSYLVLLFPVFLATDYLR as the variant, how does the protein stability index read?
**A.** 3.43

**Q.** With IYPVWTYKYLVLLFPVFLATDYLR as the variant, how does the protein stability index read?
**A.** 3.14

**Q.** For IYPVWTYEYLVLLFPVFLATDYLR, which protein stability index is on record?
**A.** 3.31

**Q.** With IYPVWTYLYLVLLFPVFLATDYLR as the variant, how does the protein stability index read?
**A.** 2.69

**Q.** Which protein stability index does the source give for IYPVWTYCYLVLLFPVFLATDYLR here?
**A.** 3.17

**Q.** Which protein stability index does the source give for IYPVWTYWYLVLLFPVFLATDYLR here?
**A.** 2.99

**Q.** For IYPVWTYPYLVLLFPVFLATDYLR, which protein stability index is on record?
**A.** 3.7

**Q.** For IYPVWTYMYLVLLFPVFLATDYLR, which protein stability index is on record?
**A.** 3.15

**Q.** For IYPVWTYSYLVLLKPVFLATDYLR, which protein stability index is on record?
**A.** 1.99

**Q.** With IYPVWTYSYLVLLVPVFLATDYLR as the variant, how does the protein stability index read?
**A.** 2.97

**Q.** Which protein stability index does the source give for IYPVWTYSYLVLLHPVFLATDYLR here?
**A.** 3.32

**Q.** For IYPVWTYSYLVLLTPVFLATDYLR, which protein stability index is on record?
**A.** 3.75

**Q.** For IYPVWTYSYLVLLRPVFLATDYLR, which protein stability index is on record?
**A.** 3.83

**Q.** Which protein stability index does the source give for IYPVWTYSYLVLLEPVFLATDYLR here?
**A.** 2.74

**Q.** With IYPVWTYSYLVLLLPVFLATDYLR as the variant, how does the protein stability index read?
**A.** 3.35

**Q.** With IYPVWTYSYLVLLQPVFLATDYLR as the variant, how does the protein stability index read?
**A.** 2.98

**Q.** With IYPVWEYSYLVLLFPVFLATDYLR as the variant, how does the protein stability index read?
**A.** 2.71

**Q.** Which protein stability index does the source give for IYPVWVYSYLVLLFPVFLATDYLR here?
**A.** 2.9

**Q.** Which protein stability index does the source give for IYPVWSYSYLVLLFPVFLATDYLR here?
**A.** 2.86

**Q.** With IYPVWHYSYLVLLFPVFLATDYLR as the variant, how does the protein stability index read?
**A.** 3.42

**Q.** With IYPVWYYSYLVLLFPVFLATDYLR as the variant, how does the protein stability index read?
**A.** 3.51

**Q.** With IYPVWDYSYLVLLFPVFLATDYLR as the variant, how does the protein stability index read?
**A.** 2.08

**Q.** Which protein stability index does the source give for IYPVWMYSYLVLLFPVFLATDYLR here?
**A.** 2.95

**Q.** For IYPVWRYSYLVLLFPVFLATDYLR, which protein stability index is on record?
**A.** 2.39

**Q.** With IYPVWTYSYLVLLFPVFLVTDYLR as the variant, how does the protein stability index read?
**A.** 3.34

**Q.** With IYPVWTYSYLVLLFPVFLNTDYLR as the variant, how does the protein stability index read?
**A.** 3.19

**Q.** With IYPVWTYSYLVLLFPVFLQTDYLR as the variant, how does the protein stability index read?
**A.** 2.78

**Q.** With IYPVWTYSYLVLLFPVFLGTDYLR as the variant, how does the protein stability index read?
**A.** 2.6

**Q.** For IYPVWTYSYLVLLFPVFLSTDYLR, which protein stability index is on record?
**A.** 2.5

**Q.** For IYPVWTYSYLVLLFPVFLWTDYLR, which protein stability index is on record?
**A.** 3.92

**Q.** With IYPVWTYSYLVLLFPVFLMTDYLR as the variant, how does the protein stability index read?
**A.** 2.59

**Q.** For IYPVWTYSYLVLLFPVFLKTDYLR, which protein stability index is on record?
**A.** 1.69

**Q.** Which protein stability index does the source give for IYPVWTYSYLVLLFPVFLPTDYLR here?
**A.** 4.21

**Q.** For IYPVWTYSYLVLLFPVFLHTDYLR, which protein stability index is on record?
**A.** 2.48

**Q.** For IYPVWTYSYLVLLFPVFLDTDYLR, which protein stability index is on record?
**A.** 2.38

**Q.** With IYPVWTYSYLVLLFPVFLYTDYLR as the variant, how does the protein stability index read?
**A.** 3.37

**Q.** With IYPVWTYSYLVLLFPVFLFTDYLR as the variant, how does the protein stability index read?
**A.** 3.11

**Q.** Which protein stability index does the source give for IYPVWTYSYLVLLFPVFLLTDYLR here?
**A.** 3.29

**Q.** With IYPVWTYSYLVLLFPVFLATSYLR as the variant, how does the protein stability index read?
**A.** 2.09

**Q.** For IYPVWTYSYLVLLFPVFLATNYLR, which protein stability index is on record?
**A.** 2.65

**Q.** With IYPVWTYSYLVLLFPVFLATVYLR as the variant, how does the protein stability index read?
**A.** 2.38

**Q.** With IYPVWTYSYLVLLFPVFLATTYLR as the variant, how does the protein stability index read?
**A.** 2.75

**Q.** Which protein stability index does the source give for IYPVWTYSYLVLLFPVFLATRYLR here?
**A.** 2.67

**Q.** Which protein stability index does the source give for IYPVWTYSYLVLLFPVFLATYYLR here?
**A.** 3.42

**Q.** Which protein stability index does the source give for IYPVWTYSYLVLLFPVFLATWYLR here?
**A.** 2.24

**Q.** With IYPVWTYSYLVLLFPVFLATHYLR as the variant, how does the protein stability index read?
**A.** 3.39

**Q.** For IYPVWTYSYLVLLFPVFLATEYLR, which protein stability index is on record?
**A.** 3.77

**Q.** For IYPVWTHSYLVLLFPVFLATDYLR, which protein stability index is on record?
**A.** 1.33

**Q.** Which protein stability index does the source give for IYPVWTNSYLVLLFPVFLATDYLR here?
**A.** 3.72

**Q.** Which protein stability index does the source give for IYPVWTESYLVLLFPVFLATDYLR here?
**A.** 3.72

**Q.** With IYPVWTFSYLVLLFPVFLATDYLR as the variant, how does the protein stability index read?
**A.** 2.84

**Q.** Which protein stability index does the source give for IYPVWTRSYLVLLFPVFLATDYLR here?
**A.** 3.07

**Q.** With IYPVWTWSYLVLLFPVFLATDYLR as the variant, how does the protein stability index read?
**A.** 3.7

**Q.** Which protein stability index does the source give for IYPVWTYSYLVLLFGVFLATDYLR here?
**A.** 1.93

**Q.** For IYPVWTYSYLVLLFMVFLATDYLR, which protein stability index is on record?
**A.** 3.22

**Q.** With IYPVWTYSYLVLLFNVFLATDYLR as the variant, how does the protein stability index read?
**A.** 2.11

**Q.** For IYPVWTYSYLVLLFYVFLATDYLR, which protein stability index is on record?
**A.** 1.06

**Q.** Which protein stability index does the source give for IYPVWTYSTLVLLFPVFLATDYLR here?
**A.** 2.67

**Q.** Which protein stability index does the source give for IYPVWTYSELVLLFPVFLATDYLR here?
**A.** 2.2

**Q.** Which protein stability index does the source give for IYPVWTYSQLVLLFPVFLATDYLR here?
**A.** 2.02

**Q.** With IYPVWTYSNLVLLFPVFLATDYLR as the variant, how does the protein stability index read?
**A.** 3.02

**Q.** Which protein stability index does the source give for IYPVWTYSVLVLLFPVFLATDYLR here?
**A.** 3.11

**Q.** For IYPVWTYSYLVLLFPVFLAADYLR, which protein stability index is on record?
**A.** 2.94

**Q.** With IYPVWTYSYLVLLFPVFLAIDYLR as the variant, how does the protein stability index read?
**A.** 4.41

**Q.** Which protein stability index does the source give for IYPVWTYSYLVLLFPVFLAYDYLR here?
**A.** 1.95

**Q.** Which protein stability index does the source give for IYPVWTYSYLVLLFPVFLAQDYLR here?
**A.** 3.01

**Q.** With IYPVWTYSYLVLLFPVFLACDYLR as the variant, how does the protein stability index read?
**A.** 2.53

**Q.** With IYPVWTYSYLVLLFPVFLAPDYLR as the variant, how does the protein stability index read?
**A.** 3.55

**Q.** With IYAVWTYSYLVLLFPVFLATDYLR as the variant, how does the protein stability index read?
**A.** 3.47

**Q.** Which protein stability index does the source give for IYCVWTYSYLVLLFPVFLATDYLR here?
**A.** 3.34

**Q.** Which protein stability index does the source give for IYEVWTYSYLVLLFPVFLATDYLR here?
**A.** 2.5

**Q.** With IYYVWTYSYLVLLFPVFLATDYLR as the variant, how does the protein stability index read?
**A.** 2.94
